{"source": "paper PMC7572793", "key": {"[1]": {"target": "rPfCSP_∆ABCD (Plasmodium falciparum) (UniProt Q7K740)", "experiment": "ITC"}, "[2]": {"target": "recombinant full-length PfCSP (rPfCSP_FL) (Plasmodium falciparum) (UniProt Q7K740)", "experiment": "ITC"}}}
{"substance": "L9 (antibody)", "values": [{"measurement": "Kd", "setting": "[1]", "result": 73, "unit": "nM"}, {"measurement": "stoichiometry N (antigen binding sites per rPfCSP)", "setting": "[1]", "result": 12.7}, {"measurement": "KD1 (binding event 1)", "setting": "[2]", "result": 22, "unit": "nM"}, {"measurement": "KD2 (binding event 2)", "setting": "[2]", "result": 47, "unit": "nM"}, {"measurement": "N of binding event 1 (binding sites)", "setting": "[2]", "result": 2}, {"measurement": "N of binding event 2 (binding sites)", "setting": "[2]", "result": 9}, {"measurement": "stoichiometry N (antigen binding sites per rPfCSP)", "setting": "[2]", "result": 11.2}]}
